Measurements from publication PMC7055916.

Target: T. brucei PNUTS with PTP tag, bloodstream form (T. brucei)
Assay: co-sedimentation; extracts of bloodstream form T. brucei expressing PNUTS-PTP and JBP3-HA or Wdr82-HA on 5-50% sucrose gradients, 38000 rpm 18 hours, fractions analysed by western blot

stoichiometry N	Substance
1	T. brucei JBP3 with 3x HA tag, bloodstream form (natural protein)
1	T. brucei Wdr82 with 3x HA tag, bloodstream form (natural protein)
